Experimental findings from IntAct's records for PubMed 16432186 are described below.

The labels stand for the following.
B1: Beta-arrestin-1 (Homo sapiens), P49407-1 (parent)
chain: MGDKGTRVFKKASPNGKLTVYLGKRDFVDHIDLVDPVDGVVLVDPEYLKERRVYVTLTCAFRYGREDLDVLGLTFRKDLFVANVQSFPPAPEDKKPLTRLQERLIKKLGEHAYPFTFEIPPNLPCSVTLQPGPEDTGKACGVDYEVKAFCAENLEEKIHKRNSVRLVIRKVQYAPERPGPQPTAETTRQFLMSDKPLHLEASLDKEIYYHGEPISVNVHVTNNTNKTVKKIKISVRQYADICLFNTAQYKCPVAMEEADDTVAPSSTFCKVYTLTPFLANNREKRGLALDGKLKHEDTNLASSTLLREGANREILGIIVSYKVKVKLVVSRGGLLGDLASSDVAVELPFTLMHPKPKEEPPHREVPENETPVDTNLIELDTNDDDIVFEDFARQRLKGMKDDKEEEEDGTGSPQLNNR

The test covers variants of B1. The settings on record: with src_human SRC.
On to S412D, for which the “effect of a mutation on the interaction” value is on record as “disrupting interaction strength”.
